Experimental data taken from US11446371B2, “Targeting of ligand binding sites in ClfA” (THE TEXAS A&M UNIVERSITY SYSTEM, priority 2015, dated 2022).
Substitutions are numbered along the chain they refer to. “Also recorded” adds a separate entry of the source. Where a SMILES comes first, the peptide text is derived from it.

T1: immobilized human Fg (Homo sapiens, UniProt P02671+P02675+P02679)
T1 construct: immobilized intact Fg
T1 sequence (P02671 20-644 isoform P02671-2 limits assumed): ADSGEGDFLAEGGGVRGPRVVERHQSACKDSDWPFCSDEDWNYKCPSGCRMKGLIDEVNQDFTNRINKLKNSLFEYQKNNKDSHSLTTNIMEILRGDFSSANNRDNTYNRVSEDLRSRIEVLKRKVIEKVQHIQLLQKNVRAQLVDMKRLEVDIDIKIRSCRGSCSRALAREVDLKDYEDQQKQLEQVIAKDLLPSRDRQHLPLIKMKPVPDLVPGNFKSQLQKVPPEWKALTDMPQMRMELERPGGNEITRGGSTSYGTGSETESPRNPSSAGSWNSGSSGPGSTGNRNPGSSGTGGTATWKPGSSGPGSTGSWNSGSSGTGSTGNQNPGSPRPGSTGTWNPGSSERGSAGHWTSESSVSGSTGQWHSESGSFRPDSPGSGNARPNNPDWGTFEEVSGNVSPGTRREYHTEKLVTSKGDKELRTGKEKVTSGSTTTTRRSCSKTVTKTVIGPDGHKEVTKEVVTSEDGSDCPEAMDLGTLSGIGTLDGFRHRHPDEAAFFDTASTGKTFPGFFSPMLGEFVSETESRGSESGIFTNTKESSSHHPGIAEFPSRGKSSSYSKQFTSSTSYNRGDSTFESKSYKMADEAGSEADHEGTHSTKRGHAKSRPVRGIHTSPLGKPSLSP
T1 sequence (P02675 31-491): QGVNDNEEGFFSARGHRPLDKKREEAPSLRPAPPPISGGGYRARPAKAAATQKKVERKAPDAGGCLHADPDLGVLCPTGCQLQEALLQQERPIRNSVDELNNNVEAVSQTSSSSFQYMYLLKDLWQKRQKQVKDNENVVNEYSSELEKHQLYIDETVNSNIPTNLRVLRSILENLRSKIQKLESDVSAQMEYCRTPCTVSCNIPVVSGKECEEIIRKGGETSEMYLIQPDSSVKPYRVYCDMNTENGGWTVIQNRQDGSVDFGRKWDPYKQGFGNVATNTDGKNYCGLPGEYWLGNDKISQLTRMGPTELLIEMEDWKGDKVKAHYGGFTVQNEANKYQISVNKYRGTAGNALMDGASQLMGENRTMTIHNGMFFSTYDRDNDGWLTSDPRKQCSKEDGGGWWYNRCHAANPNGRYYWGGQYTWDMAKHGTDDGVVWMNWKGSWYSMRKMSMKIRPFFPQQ
T1 sequence (P02679 27-437 isoform P02679-2 limits assumed): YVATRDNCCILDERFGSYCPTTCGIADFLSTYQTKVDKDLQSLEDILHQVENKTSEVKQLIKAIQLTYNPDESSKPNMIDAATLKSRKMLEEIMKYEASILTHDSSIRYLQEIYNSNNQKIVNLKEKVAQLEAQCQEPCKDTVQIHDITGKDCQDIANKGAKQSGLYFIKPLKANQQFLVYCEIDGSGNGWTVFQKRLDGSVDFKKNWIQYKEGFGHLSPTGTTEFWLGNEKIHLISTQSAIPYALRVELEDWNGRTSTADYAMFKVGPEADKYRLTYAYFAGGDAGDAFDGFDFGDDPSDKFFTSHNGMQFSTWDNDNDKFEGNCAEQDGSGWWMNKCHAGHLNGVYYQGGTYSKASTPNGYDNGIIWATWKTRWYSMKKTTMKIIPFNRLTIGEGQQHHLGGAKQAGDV

T2: ClfACC (Staphylococcus aureus, UniProt Q53653, D327C/K541C)
T2 construct: made in house; host or cells: E. coli Topp3
T2 sequence (Q53653 229-545 D327C/K541C limits assumed): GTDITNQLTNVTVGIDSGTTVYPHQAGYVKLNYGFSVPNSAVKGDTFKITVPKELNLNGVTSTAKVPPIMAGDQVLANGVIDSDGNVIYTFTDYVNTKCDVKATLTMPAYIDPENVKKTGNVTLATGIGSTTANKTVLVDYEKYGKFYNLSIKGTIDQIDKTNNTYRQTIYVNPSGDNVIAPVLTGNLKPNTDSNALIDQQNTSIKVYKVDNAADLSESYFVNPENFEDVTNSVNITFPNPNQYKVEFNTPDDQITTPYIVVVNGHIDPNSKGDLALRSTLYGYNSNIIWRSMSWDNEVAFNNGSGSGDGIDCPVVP

B1: ClfAPWY (protein)
chain: VAADAPAAGTDITNQLTNVTVGIDSGTTVYPHQAGYVKLNYGFSVPNSAVKGDTFKITVPKELNLNGVTSTAKVPPIMAGDQVLANGVIDSDGNVIYTFTDYVNTKDDVKATLTMPAYIDPENVKKTGNVTLATGIGSTTANKTVLVDYEKYGKFYNLSIKGTIDQIDKTNNTYRQTIYVNPSGDNVIAPVLTGNLKPNTDSNALIDQQNTSIKVYKVDNAADLSESYFVNPENFEDVTNSVNITFANPNQYKVEFNTPDDQITTPYIVVVNGHIDPNSKGDLALRSTLYGANSNIIARSMSWDNEVAFNNGSGSGDGIDKPVVPEQPDEPGEIEPIPE
B2: ClfA221-559: recombinant ClfA residues 221-559 (N2N3 subdomains) from S. aureus strain Newman (protein)
chain: B1 chain with A247P, A292Y, A298W
B3: ClfA370-559: recombinant form of the ClfA N3 subdomain (protein)
chain: EKYGKFYNLSIKGTIDQIDKTNNTYRQTIYVNPSGDNVIAPVLTGNLKPNTDSNALIDQQNTSIKVYKVDNAADLSESYFVNPENFEDVTNSVNITFPNPNQYKVEFNTPDDQITTPYIVVVNGHIDPNSKGDLALRSTLYGYNSNIIWRSMSWDNEVAFNNGSGSGDGIDKPVVPEQPDEPGEIEPIPE

What was measured:
immobilized human Fg [1] = molecular target: T1, immobilized human Fg; assay: SPR binding of ClfA proteins to immobilized Fg; conditions: 0.1 μM ClfA221-559 variant
Description: (§1) Surface Plasmon Resonance. Surface plasmon resonance-based binding experiments were performed at 25° C. on a Biacore 3000 (GE Healthcare/Biacore, Uppsala, Sweden). Phosphate buffered saline (PBS-T: 8.06 mM Na2HPO4, 1.94 mM KH2PO4, 2.7 mM KCl and 137 mM NaCl, pH 7.4, and 0.005% Tween-20) was used as running buffer for immobilization and binding experiments. Flow rate of 5 μl/min was used during immobilization and a higher rate 30 or 50 μl/min for binding experiments. The fibrinogen (Fg) surface was prepared on a CM5 sensor chip via standard amine-coupling chemistry. A Fg solution (10 μl of 20 μg/ml in sodium citrate, pH5.5) was injected to an activated (4 min) flow cell. After deactivation, about 7000 resonance units (RU) of Fg were immobilized. A reference surface was prepared with activation and deactivation steps but no protein coupled. […] For GST fusion protein capturing, approximately 11000 RU of goat anti-GST antibody (GE Healthcare/Biacore) were immobilized simultaneously on two flow cells on a CM5 sensor chip. GST-tagged Fg γ-peptide (20 μg/ml in PBS-T) was captured by the antibody and created a ligand surface (about 700 RU). The other flow cell with GST captured (about 900 RU) served as a reference surface. […] All SPR responses were baseline corrected by subtracting response generated from reference surface.
(§2) Since most of the known and putative Fg interactive sites in ClfA are located within the N3 subdomain we examined the interactions of a recombinant form of N3 (ClfA370-559) to the different forms of immobilized Fg.

immobilized Tefibazumab = assay: SPR binding of ClfA221-559 variants to immobilized Tefibazumab; conditions: 0.1 μM ClfA221-559 variant
Description: Surface Plasmon Resonance.
FIG. 3A is a ribbon diagram of ClfA-N3 domain showing the positions of PWY. The Fg γ-peptide is shown as a ribbon to show the location of the Fg γ-peptide binding site. […] The amino acid substitutions in the variant proteins were made at the mAb binding site. FIG. 3C is a graph of ClfAPWY and Fg-γ P16 peptide interaction measured by ITC.

ClfACC = molecular target: T2, ClfACC; assay: ITC, synthetic C-terminal γ-chain peptide titrated into ClfACC; format: binding, S. aureus; conditions: peptide titrated into cell containing ClfACC
Fg binding to ClfA = Fg binding to ClfA (Staphylococcus aureus, UniProt Q53653); assay: Reduction of Fg binding to ClfA by synthetic Fg γ-peptide; design: species or system S. aureus; conditions: even at high concentrations
immobilized human Fg [2] = assay: SPR binding of ClfA proteins to immobilized Fg; conditions: immobilized Fg, Fg D-fragment, GST-γ-peptide
Description: as §1, §2

| Molecule | binding to immobilized human Fg (immobilized human Fg [1]) | binding to immobilized Tefibazumab (immobilized Tefibazumab) | fold difference in KD between binding to γ-peptide and to Fg or Fg D-fragment (immobilized human Fg [2]) | further results |
| --- | --- | --- | --- | --- |
| Y512A | reduced binding | slightly reduced binding |  |  |
| CC(C)C[C@H](NC(=O)[C@H](Cc1c[nH]cn1)NC(=O)[C@H](Cc1c[nH]cn1)NC(=O)[C@H](CCC(N)=O)NC(=O)[C@H](CCC(N)=O)NC(=O)CNC(=O)[C@H](CCC(=O)O)NC(=O)CN)C(=O)NCC(=O)NCC(=O)N[C@@H](C)C(=O)N[C@@H](CCCCN)C(=O)N[C@@H](CCC(N)=O)C(=O)N[C@@H](C)C(=O)NCC(=O)N[C@@H](CC(=O)O)C(=O)N[C@H](C(=O)O)C(C)C [Fg γ-peptide] (H-GEGQQHHLGGAKQAGDV-OH; N-terminus and C-terminus assumed) |  |  |  | Kd (ClfACC): 9 µM; maximum reduction of Fg binding to ClfA (Fg binding to ClfA): ~50% |
| B1 | minimal binding | almost completely abolished; also recorded: completely lost its ability to bind |  |  |
| B2 |  |  | 4-7 fold |  |
| B3 |  |  | about 10 fold |  |
